The target in experiment [1] is T1, C4-N6 modified GALNS (Homo sapiens).
T1 sequence: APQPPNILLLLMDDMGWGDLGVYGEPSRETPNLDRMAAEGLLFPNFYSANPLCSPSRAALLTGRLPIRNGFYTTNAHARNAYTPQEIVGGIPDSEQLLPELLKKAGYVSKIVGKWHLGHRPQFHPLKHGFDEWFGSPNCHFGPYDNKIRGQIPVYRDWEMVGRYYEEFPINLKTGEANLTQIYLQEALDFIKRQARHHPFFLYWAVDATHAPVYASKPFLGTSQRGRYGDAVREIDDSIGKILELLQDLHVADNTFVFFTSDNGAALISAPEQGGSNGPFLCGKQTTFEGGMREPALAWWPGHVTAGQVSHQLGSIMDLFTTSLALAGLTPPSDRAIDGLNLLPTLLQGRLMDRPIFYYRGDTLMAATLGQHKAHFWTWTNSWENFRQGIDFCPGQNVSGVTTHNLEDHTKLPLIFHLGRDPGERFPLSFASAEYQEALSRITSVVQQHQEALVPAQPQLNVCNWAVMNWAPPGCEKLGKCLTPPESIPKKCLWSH

Experiment [2] addresses T2, E8-N13 modified GALNS (Homo sapiens).
T2 sequence: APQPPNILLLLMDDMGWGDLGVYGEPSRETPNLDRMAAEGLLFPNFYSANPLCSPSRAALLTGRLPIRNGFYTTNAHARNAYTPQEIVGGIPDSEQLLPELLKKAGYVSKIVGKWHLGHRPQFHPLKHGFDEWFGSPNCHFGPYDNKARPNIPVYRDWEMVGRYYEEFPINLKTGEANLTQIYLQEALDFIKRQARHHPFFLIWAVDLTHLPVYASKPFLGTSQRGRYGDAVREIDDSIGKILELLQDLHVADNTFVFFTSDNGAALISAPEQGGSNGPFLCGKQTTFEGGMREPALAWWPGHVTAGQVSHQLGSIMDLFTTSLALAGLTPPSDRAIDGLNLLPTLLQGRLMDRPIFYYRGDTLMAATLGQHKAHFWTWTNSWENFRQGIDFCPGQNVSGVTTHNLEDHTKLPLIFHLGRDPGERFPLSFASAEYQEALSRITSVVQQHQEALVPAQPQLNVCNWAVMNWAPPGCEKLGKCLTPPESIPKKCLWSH

Experiment [3] addresses T3, I10-N14 modified GALNS (Homo sapiens).
T3 sequence: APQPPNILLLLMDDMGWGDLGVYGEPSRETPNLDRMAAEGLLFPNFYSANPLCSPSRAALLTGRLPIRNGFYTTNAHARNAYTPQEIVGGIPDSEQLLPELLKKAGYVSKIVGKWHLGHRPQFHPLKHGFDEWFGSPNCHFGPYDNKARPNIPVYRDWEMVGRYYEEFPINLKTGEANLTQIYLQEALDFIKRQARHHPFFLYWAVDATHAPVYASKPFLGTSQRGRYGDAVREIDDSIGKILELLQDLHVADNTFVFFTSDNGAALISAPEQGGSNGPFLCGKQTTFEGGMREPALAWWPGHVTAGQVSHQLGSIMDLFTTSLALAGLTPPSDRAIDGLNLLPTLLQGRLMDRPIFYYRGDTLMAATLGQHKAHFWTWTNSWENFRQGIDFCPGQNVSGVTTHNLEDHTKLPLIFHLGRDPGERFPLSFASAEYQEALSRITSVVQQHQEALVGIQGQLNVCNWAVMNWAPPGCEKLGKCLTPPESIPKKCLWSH

The target in experiment [4] is T4, GALNS-315 (E8-N14 + I10-N14) (Homo sapiens).
T4 sequence: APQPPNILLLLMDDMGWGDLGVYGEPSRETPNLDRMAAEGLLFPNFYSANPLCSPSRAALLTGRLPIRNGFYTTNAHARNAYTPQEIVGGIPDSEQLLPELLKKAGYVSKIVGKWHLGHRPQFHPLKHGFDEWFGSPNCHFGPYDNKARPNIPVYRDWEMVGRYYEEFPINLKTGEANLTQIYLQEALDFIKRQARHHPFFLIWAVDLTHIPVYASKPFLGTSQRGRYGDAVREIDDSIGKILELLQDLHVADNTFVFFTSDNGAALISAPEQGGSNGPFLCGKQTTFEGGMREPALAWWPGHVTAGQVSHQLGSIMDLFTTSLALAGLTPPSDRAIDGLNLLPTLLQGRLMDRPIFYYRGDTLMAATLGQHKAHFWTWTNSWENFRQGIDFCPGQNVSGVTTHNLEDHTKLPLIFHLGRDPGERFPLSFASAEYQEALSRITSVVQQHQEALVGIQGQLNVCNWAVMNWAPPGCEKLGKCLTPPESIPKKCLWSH

The target of experiment [5] is T5, Wild type N-acetylgalactosamine-6-sulfate sulfatase (GALNS) (Homo sapiens).
T5 sequence: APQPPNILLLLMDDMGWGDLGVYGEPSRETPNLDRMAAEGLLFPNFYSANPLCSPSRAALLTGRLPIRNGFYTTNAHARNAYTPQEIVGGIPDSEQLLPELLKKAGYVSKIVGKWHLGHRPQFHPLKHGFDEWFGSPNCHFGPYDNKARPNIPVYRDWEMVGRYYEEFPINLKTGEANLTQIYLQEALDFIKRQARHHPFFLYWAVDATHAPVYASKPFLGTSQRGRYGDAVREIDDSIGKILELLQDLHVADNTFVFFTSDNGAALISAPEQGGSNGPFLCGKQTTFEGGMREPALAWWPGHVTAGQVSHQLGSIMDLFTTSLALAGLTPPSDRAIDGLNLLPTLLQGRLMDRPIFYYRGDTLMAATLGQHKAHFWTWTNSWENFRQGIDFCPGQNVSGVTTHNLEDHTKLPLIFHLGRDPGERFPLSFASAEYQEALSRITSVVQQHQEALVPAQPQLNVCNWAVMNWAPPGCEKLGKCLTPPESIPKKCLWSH

The target of experiment [6] is T6, GALNS-201 (C4-N6 + I10-N14) (Homo sapiens).
T6 sequence: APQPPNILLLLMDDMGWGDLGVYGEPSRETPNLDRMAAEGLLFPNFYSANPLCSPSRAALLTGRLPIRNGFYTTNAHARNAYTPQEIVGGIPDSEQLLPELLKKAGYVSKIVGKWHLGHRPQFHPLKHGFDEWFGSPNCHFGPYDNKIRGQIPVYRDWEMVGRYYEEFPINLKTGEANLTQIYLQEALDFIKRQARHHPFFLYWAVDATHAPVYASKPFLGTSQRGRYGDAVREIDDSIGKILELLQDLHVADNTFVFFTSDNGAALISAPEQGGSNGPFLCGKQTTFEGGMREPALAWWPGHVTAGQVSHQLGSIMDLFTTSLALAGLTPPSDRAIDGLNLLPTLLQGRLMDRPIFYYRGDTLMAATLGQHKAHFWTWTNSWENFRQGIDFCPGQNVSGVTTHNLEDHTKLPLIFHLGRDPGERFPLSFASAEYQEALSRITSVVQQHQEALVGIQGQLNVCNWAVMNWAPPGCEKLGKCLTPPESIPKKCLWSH

The target of experiment [7] is T7, GALNS-231 (C4-N6 + E8-N14 + I10-N14) (Homo sapiens).
T7 sequence: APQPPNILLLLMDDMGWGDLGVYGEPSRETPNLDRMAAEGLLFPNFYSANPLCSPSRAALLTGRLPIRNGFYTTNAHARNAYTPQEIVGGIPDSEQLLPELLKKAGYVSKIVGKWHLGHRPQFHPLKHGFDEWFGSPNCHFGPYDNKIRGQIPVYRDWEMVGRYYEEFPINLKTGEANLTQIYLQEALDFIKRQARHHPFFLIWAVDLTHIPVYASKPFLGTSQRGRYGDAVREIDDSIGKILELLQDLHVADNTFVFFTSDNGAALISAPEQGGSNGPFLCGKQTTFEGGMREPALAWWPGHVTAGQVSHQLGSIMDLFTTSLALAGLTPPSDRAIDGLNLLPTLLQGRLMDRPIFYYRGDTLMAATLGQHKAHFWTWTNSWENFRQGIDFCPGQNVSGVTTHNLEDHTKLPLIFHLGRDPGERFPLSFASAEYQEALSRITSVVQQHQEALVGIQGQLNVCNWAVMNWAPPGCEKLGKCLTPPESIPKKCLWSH

The target of experiment [8] is T8, GALNS-242 (C4-N7 + E8-N11) (Homo sapiens).
T8 sequence: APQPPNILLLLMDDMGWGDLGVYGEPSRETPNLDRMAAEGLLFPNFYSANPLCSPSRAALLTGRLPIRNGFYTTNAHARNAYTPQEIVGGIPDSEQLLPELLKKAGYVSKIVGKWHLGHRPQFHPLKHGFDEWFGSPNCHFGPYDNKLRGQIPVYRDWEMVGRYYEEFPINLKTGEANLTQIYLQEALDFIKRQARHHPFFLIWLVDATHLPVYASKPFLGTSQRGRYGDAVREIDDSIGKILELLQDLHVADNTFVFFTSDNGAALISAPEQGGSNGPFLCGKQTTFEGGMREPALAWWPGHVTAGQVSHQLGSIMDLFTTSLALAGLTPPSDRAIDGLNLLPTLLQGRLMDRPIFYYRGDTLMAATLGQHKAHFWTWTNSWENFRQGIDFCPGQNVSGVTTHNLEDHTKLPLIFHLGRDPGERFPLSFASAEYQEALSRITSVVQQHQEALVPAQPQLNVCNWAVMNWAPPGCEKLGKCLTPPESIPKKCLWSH

B1: Sulfatase-modifying factor 1 (SUMF1) (enzyme)
chain: SQEAGTGAGAGSLAGSCGCGTPQRPGAHGSSAAAHRYSREANAPGPVPGERQLAHSKMVPIPAGVFTMGTDDPQIKQDGEAPARRVTIDAFYMDAYEVSNTEFEKFVNSTGYLTEAEKFGDSFVFEGMLSEQVKTNIQQAVAAAPWWLPVKGANWRHPEGPDSTILHRPDHPVLHVSWNDAVAYCTWAGKRLPTEAEWEYSCRGGLHNRLFPWGNKLQPKGQHYANIWQGEFPVTNTGEDGFQGTAPVDAFPPNGYGLYNIVGNAWEWTSDWWTVHHSVEETLNPKGPPSGKDRVKKGGSYMCHRSYCYRYRCAARSQNTPDSSASNLGFRCAADRLPTMD
Regarding B1, the GALNS enzyme activity in the pellet of COS-7 cells co-transfected with SUMF1, percentage of GALNS without SUMF1 (percent of GALNS (without SUMF1)) in experiment [1] was 443; in experiment [2] it was 567; in experiment [3] it was 568; in experiment [4] it was 563; in experiment [5], 1930; in experiment [6], 545. Besides, the GALNS enzyme activity in the pellet of COS-7 cells co-transfected with SUMF1, percentage of GALNS without SUMF1 (percent of GALNS (without SUMF1)) in experiment [7] amounted to 628; in experiment [8] it was 434.
